The results in this text go back to the nanobody polyreactivity screen of Harvey et al. (2022).

This series can be described thus: yeast display, Sf9 membrane polyspecificity reagent, FACS + sequencing; frameworks hold sequencing errors. Summed up:
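A nanobody's polyreactivity label depends on the gate it was sorted from. Yeast display cells were stained with 10% biotinylated, detergent-solubilized Sf9 membrane reagent for 1 hour at 4 °C, enriched on streptavidin microbeads and sorted by FACS. The low and high (top ~1%) gates were set on anti-HA fluorescence for expression and streptavidin fluorescence for reagent binding.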
On to “QVQLVESGGGLVQAGGSLRLSCAASGFIYWYYAMGWYRQAPGKERELVAAISGTGGTTYYADSVKGRFTISRDNAKNTVYLQMKSLKPEDTAVYYCNDRYDSRRTAIGYDYWGQGTQVTGSS”, for which the “polyreactivity (PSR sort gate)” value is “low polyreactivity”.
With “QVQLVESGGGLVQAGGSLRLSCAASGFIYYGYAMGWYRQAPGKEMELVAAITSGGSTTYADSVKGRFTISRDNAKNTVYLQMNSLKPVDTAVYYGAASVCREVGWGQGTQVTVSS” the entry was “high polyreactivity”.
Next, “QVQLVESGGGLVQAGGSLRLSCAASGFLFRYYTMGWYRQAPGKERDLVAVITRGGSTYYADSVKGRFTISRDNAKNTVYLQMNSLKPEDTAVYYCAAVRTKVWRGPEMDYWGQGTQVTVSS”: “high polyreactivity”; “QVQLVESGGGLVQAGGSLRLSCAASGFNFDANPLGWYRQAAGKERELVAAISWSGGSTYYADSVKGRFTISRDYANNSVYLQMNTLKPEDTAVYYCAADILGYSYEYWGQGTQVTVSS”: “high polyreactivity”; “QVQLVESGGGLVQAGGSLRLSCAASGFNFDENAMGWYRQAPGKEREFYAAISISGSSTYADSVKGRFTISRDNAKNTVYLQMNCLKPEDTAVYFCAASYTTEYTGDGHSGVGDGDYWGQGTQVTVSS”: “low polyreactivity”.
As to “QVQLVESGGGLVQAGGSLRLSCAASGFNFDFYAMGWYRQAPGKEREMVAAISKNDGTTYFAYSVKGRFTISRDNAKNTVYLQMNSLKPEDTAVYFCAAESGYPVYTYVSSGVYWGQGTQVTVSS”, the “polyreactivity (PSR sort gate)” value is reported as “low polyreactivity”.
Consider “QVQLVESGGGLVQAGGSLRLSCAASGFNFDYNAMGWYRQAPGKERELVAAISWSGGRTYYADSVKGRFTISRDNAKNTVYLQMNSLKPEDTAVYYCAARARNYPPYNYWGQGTQVTVSS”, for which the “polyreactivity (PSR sort gate)” value is “high polyreactivity”.
Next, “QVQLVESGGGLVQAGGSLRLSCAASGFNFNKNAMGWYRQAPGKERELVAAISGTGGSTYYADSVKVRFTISRDNAKNTVYLQMNSLKPEDTAVYFCASRRYRQFSTGGQPGYYWGQGTLVTVSS”: “high polyreactivity”; “QVQLVESGGGLVQAGGSLRLSCAASGFNFRYYTMGWYRQAPGTERELVAVITSGGTTYYADSVKGRFTISRDNAKNTVYLQMNSLKPEDTAVYYCAADYRPRLYGVGVDYWGQGTQVTVSS”: “low polyreactivity”; “QVQLVESGGGLVQAGGSLRLSCAASGFNFSPYAMGWYRQAPGKERELVAAISSSGGSTYYADSVKGRFTISRDNAKNTVYLQMNSLKPEDTAVYYCNAAGGYRTSPSDYWGQGTQVTVSS”: “high polyreactivity”.
Next, “QVQLVESGGGLVQAGGSLRLSCAASGFNFSYYAMGWYRHAPGKEWELVAAISRSGGSTYYADSVKGRFTISRDNAKNTVYLQMNSLKPEDTAVYYCAKRIKDRSGEAYVGLYYWGQGTQVTVSS”: “high polyreactivity”; “QVQLVESGGGLVQAGGSLRLSCAASGFNFYYYAMGWYRQAPGKERELVAVLTESGSSTYYADSVKGRFTISRDNAKNTVYLQMNSLKPEDSAVYYCNADFWPFTGKYDSVHLDYWGQATQVTVSS”: “low polyreactivity”; “QVQLVESGGGLVQAGGSLRLSCAASGFNIASYDMGWYRQAPGKERELVAAISKGGGRTYYADSVKGRFTISRDIAKNTVYLQMNSLKPEDTAVDYCAAEYRGYLHYHFQYLFDYWGQGTQVNVSS”: “low polyreactivity”.
With “QVQLVESGGGLVQAGGSLRLSCAASGFPFPDYAMGWYRQAPGKERELVAGISSTGDSTYYADSVKGRFTISRDNAKNTVYLQMNSLKPEDTAVYYCNAAQERPIIILFSKYDYWGQGTQVTVSS” the entry was “low polyreactivity”.
As for “QVQLVESGGGLVQAGGSLRLSCAASGFSFRVYTMGWYRQAPGKERELVAAISYRGGRTYYADTVKGRFTISRDNAKNNVYLQMNSLKPEDSALYYCAATAIYPSAWRMDYWGQGTLVTVSS”, the “polyreactivity (PSR sort gate)” value is “high polyreactivity”.
With “QVQLVESGGGLVQAGGSLRLSCAASGFSIAYYAMGWYRQEPGKERELVAAISRRGGSTYYADSVKGRFTISRDNAKNTVYLQMNSLKPEDTAVYYCAKAHYLSDYNYWGQGTQVTVSS” the entry was “high polyreactivity”; with “QVQLVESGGGLVQAGGSLRLSCAASGFTASYAMGWYRQAPWKERELVATINSGGGSTRYADSVKGRFTISRDNAKNTVYLQMNSLKPEDTAVYYCAKRWRRNFDYWGQGTQVTVSS”, “high polyreactivity”; with “QVQLVESGGGLVQAGGSLRLSCAASGFTCSRYAMGWYRQAPGKERELVAAISSGGSTNYADSVKGRFTISRDNAKNTVYLQMNSLKPEDTAVYYCAVTWRYKGYYWGQGTQVTVSS”, “high polyreactivity”.
With “QVQLVESGGGLVQAGGSLRLSCAASGFTCVPYAMGWYSQAPGKARELVAAITGGGSTYYADSVKGRFTISRDNAKNTVYFQMHSLKPEDTAVYYCAAREARSHRYSNRVYYWGQGTQVTVSS” the entry was “high polyreactivity”; with “QVQLVESGGGLVQAGGSLRLSCAASGFTCVRYAMGWYRPAPGKEREFVASISARGGNTFYADSVKGRFTISRDHAKNTVYLQMNSLKPEDTAVYYCAKRGPYGTGYGYWGQGTQLTVSS”, “high polyreactivity”; with “QVQLVESGGGLVQAGGSLRLSCAASGFTCYNYAMGWYRQAPGKERELVAAITSSGTSTYYADSVKGRFTISRDNAKNTVYLQMNSLKPEDTAVYYCATYVAYHRGYSTYDHWGQGSQVTVSS”, “low polyreactivity”.
With “QVQLVESGGGLVQAGGSLRLSCAASGFTFAAYAMGWYRQAPGKERELVAAISWSGGSTRYADCVKGRYTISRDNAKNTVYLQKNSLIPEDTAVYYCNAVGYRVGIYSSKGDYWGQGTQVTVSS” the entry was “high polyreactivity”.
Take “QVQLVESGGGLVQAGGSLRLSCAASGFTFAFYAMGWYRQAPGKERELVAAISWDGVTTYYADSVKGRFTISRDNAKNTVYLQMNSLKPEDTAVYYCAADYPDYAGSFWPSGMYYWGQGTQVTVSS”: the “polyreactivity (PSR sort gate)” value is reported as “low polyreactivity”.
Next, “QVQLVESGGGLVQAGGSLRLSCAASGFTFAFYAMGWYRQAPGKERELVAAITGSGGSTYYADSVKGRFTISRDNAKNTVYLQMNSLKPEDTAVYYCAADLVVDYEWYDYWGQGTQVTVSS”: “high polyreactivity”; “QVQLVESGGGLVQAGGSLRLSCAASGFTFAGYVLGWYRKAPGKDRELVAAISNSGGRTYADSVKGRFTISRDNAKNTVYLQMNSLKPEDTAVYYCAKKPGGFSQASRVDYDYWGQGTQVTVSS”: “low polyreactivity”; “QVQLVESGGGLVQAGGSLRLSCAASGFTFAKYAMGWYRQAPGKERELVAAISSSGGRTYYADSVQGRFTISRDNAKNTVYLQMNSLKPEDTAVYYCAADFSGPFDYWGQGTQVTVSS”: “high polyreactivity”.
With “QVQLVESGGGLVQAGGSLRLSCAASGFTFALYAMGWYRQAPGKEREVVASIDNGVSTNYADSVKGRFTISRDNAKNTVYLQMNSLKPEDTAVYYCAKGPGYGFYKLLSYDSWGQGTQVTVSS” the entry was “low polyreactivity”; with “QVQLVESGGGLVQAGGSLRLSCAASGFTFAQYAMGWYRQAPGKERELVATISRRGGSTYYADSVKGRFTISRDNAKNTVYLQMNSLKPEDTAVYYCTAAKYLYRHGFLSAGDMYYWGQGTQVTVSS”, “high polyreactivity”; with “QVQLVESGGGLVQAGGSLRLSCAASGFTFARNAMGWNRQAPGKERELVASITQRGGSTNYADSVKGRFTISRDNAKNTVYFQLNSLKPEDTAVYYCNKASQLYYIQGTYSYGYWGQGSQVTVSS”, “low polyreactivity”.
With “QVQLVESGGGLVQAGGSLRLSCAASGFTFARNAMGWYRQAPGKERELVAAINRSGGSTYYADSVKGRFTISRDNAKNTVYLQMNSLKPEDTAVYYCNKPRLAQQGYDYWGQGTQVTVSS” the entry was “high polyreactivity”.
For the sequence “QVQLVESGGGLVQAGGSLRLSCAASGFTFARNAMGWYRQAPGKEWELGATISTSGGSTYYADSVKGRFTISRDNAKNTVYLQMNSLKPEDSAVYYFAASYWKGYRRDYWGQGTQVTVSS”, the “polyreactivity (PSR sort gate)” value was “low polyreactivity”.
Regarding “QVQLVESGGGLVQAGGSLRLSCAASGFTFATNAMGWYRQAPGTERELVAAISSRGGSTYYADSVKGRFTISRDNAKNTVYLQMNSLKPEDTAVYYCNAYRRLGGYDYWGQGTQVTVSS”, the “polyreactivity (PSR sort gate)” value is reported as “high polyreactivity”.
Next, “QVQLVESGGGLVQAGGSLRLSCAASGFTFATYAMGWYRQAPGKERELVAAISKSGGSTYYADSVKGRFTISRDNAKNTVYLQMNSLKPEDTAVYYCAKRRSVRYDYWGQGTQVTVSS”: “high polyreactivity”; “QVQLVESGGGLVQAGGSLRLSCAASGFTFAVYVMGWYRQAPGKERELVAAISRSGGSTYYADSVKGRFTISRDNAKNTVYLQMNSLKPEDTAVYYCNARVWAKYDYWGQGTQVTVSS”: “high polyreactivity”.
Next, “QVQLVESGGGLVQAGGSLRLSCAASGFTFAVYVMGWYRQAPGKERELVATISISVGSTYYADSVKGRFTISRDNAKNTVYLQMNSLKPEDTAVYYCNADPPPEYYPDKDNYWGQGTQVTVSS”: “low polyreactivity”; “QVQLVESGGGLVQAGGSLRLSCAASGFTFAYAMGWYRQAPGKERELVAAISFSGGSTYYADSVKGRFTISRDNAKNTVYLQMNSLKPEDTAVYYCNKRGGKRSTMDYWGHGTQVTVSS”: “low polyreactivity”; “QVQLVESGGGLVQAGGSLRLSCAASGFTFAYHAMGWYRQAPGKERELVAGINSSGDGTYYADSVKGRFTISRDNAKNTVYLQMNSLKQEDTAVYYCAADYTGFYQDGSYVDYDYWGQGTQVTVSS”: “low polyreactivity”.
In the case of “QVQLVESGGGLVQAGGSLRLSCAASGFTFAYNAMGWYRQAPGKERELVATISWSGGSPYYADSVKGRFTISRDNAKNTVYLQMNSLKPEDTAVYYCATTIFYTYYGLYDYWGQGTQVTVSS”, the “polyreactivity (PSR sort gate)” value is listed as “high polyreactivity”.
With “QVQLVESGGGLVQAGGSLRLSCAASGFTFAYYAMGWYRQAPGKERELVAGISWRGGRTYYADSVKGRFTISRDNAKNTVYLQMNSLKPEDTAVYYCAKQPGNFGRFDYWGQGTQVTVSS” the entry was “high polyreactivity”.
With “QVQLVESGGGLVQAGGSLRLSCAASGFTFAYYVMGWYIQAPGKETELVAAISISGARTYYAESVKGRFTISRDNSKNTVYLQMNRLKPEDTAVYYCAADRRTDGHDYWGLGTQVTVSS”, the “polyreactivity (PSR sort gate)” value is “high polyreactivity”.
